The target in the experiment is purified soluble human HM1.24 antigen (HA-tagged, from soluble human HM1.24 antigen-expressing CHO cells) (human). Nature of the experiment: sandwich ELISA with purified antigen at 5000-fold dilution (about 76.4 ng/mL) captured by anti-HA antibody; lowest measurable antibody concentration.

The substance “reshaped human anti-HM1.24 antibody (humanized anti-HM1.24 antibody), light chain version a and heavy chain version s” yielded a measurement limit of 500 pg/mL.
